The source of these data is patent US6335013B1, “Methods and materials relating to CD39-like polypeptides” (Hyseq, Inc., priority 1999, dated 2002).

Series [1] relates to COS-7 cells. In words: Brefeldin A treatment of COS-7 cells transfected with CD39-L2, secretion. As to conditions: transfected COS-7 cells, 8 hours, varying dosages. Format: cell-based.
Series [2] concerns COS-7 cells. In words: Brefeldin A treatment of COS-7 cells transfected with CD39-L4-6His, secretion. Format: cell-based. As to conditions: transfected COS-7 cells, 8 hours, increasing dosages.
Series [3] is described as follows: ADPase activity of CD39-L4 forms (insect-expressed, dimer, deglycosylated). Format: biochemical.
Series [4] is described as follows: Assay for ATPase activity, [33P]Pi released from [γ33P]ATP. The series is classed as biochemical. As to conditions: transfected COS-7 cells, 10 μCi [γ33P]ATP, one hour, 37° C.
For series [5] the following is noted: membrane bound or engineered soluble form; cited from earlier work.
Series [6] is described as follows: ADPase and ATPase activity of CD39L4 wild type and ACR mutants, inorganic phosphate released. Format: biochemical.
Series [7] can be described thus: Kinetic characteristics of CD39L4 ADP hydrolysis. The series is classed as biochemical.
The nature of series [8]: ADPase activity of CD39-L4 from transfected COS-7 cells, stimulation by divalent cations. Format: biochemical. As to conditions: 1 mM ADP.
Series [9] deals with the molecule itself. In words: Western blot of SDS-PAGE, self-association (dimer). (In general: In western blotting, separated proteins are transferred to a membrane and probed.)

Positions count from the first letter of the chain named.

For `C[C@H]1CCC/C=C/[C@@H]2C[C@H](O)C[C@H]2[C@H](O)/C=C/C(=O)O1` [brefeldin A], the “effect on recombinant CD39-L2 in the media” value in series [1] is recorded as “decreased in a brefeldin A dose dependent manner”. Besides, in series [2], the “effect on secretion of CD39-L4-6His” value is “blocked secretion of CD39-L4-6His”.

B1: CD39L4 dimer: dimeric form of secreted CD39L4 (protein, UniProt O75356 25-428, looked up)
Nucleoside diphosphate …: NQQTWFEGIFLSSMCPINVSASTLYGIMFDAGSTGTRIHVYTFVQKMPGQLPILEGEVFDSVKPGLSAFVDQPKQGAETVQGLLEVAKDSIPRSHWKKTPVVLKATAGLRLLPEHKAKALLFEVKEIFRKSPFLVPKGSVSIMDGSDEGILAWVTVNFLTGQLHGHRQETVGTLDLGGASTQITFLPQFEKTLEQTPRGYLTSFEMFNSTYKLYTHSYLGFGLKAARLATLGALETEGTDGHTFRSACLPRWLEAEWIFGGVKYQYGGNQEGEVGFEPCYAEVLRVVRGKLHQPEEVQRGSFYAFSYYYDRAVDTDMIDYEKGGILKVEDFERKAREVCDNLENFTSGSPFLCMDLSYITALLKDGFGFADSTVLQLTKKVNNIETGWALGATFHLLQSLGISH
modifications: dimer
Take B1: the “enzymatic (ADPase) activity of the dimer” value in series [3] (monomer and dimer enriched sucrose density gradient fractions) is on record as “does not possess any significant level of enzymatic activity”.

B2: deglycosylated CD39-L4: CD39-L4 from tunicamycin treated COS-7 cells (protein, UniProt O75356 25-428, looked up)
Nucleoside diphosphate …: B1 Nucleoside diphosphate …
modifications: deglycosylated (tunicamycin)
notes: CD39-L4 from tunicamycin treated COS-7 cells
As for B2, the “ADPase activity of deglycosylated protein” value in series [3] (from tunicamycin (5 μg/ml) treated COS-7 cells) was “comparable to an equal amount of the glycosylated protein”.

B3: CD39-L66: isoform (splice variant) of CD39-L4, amino acid sequence SEQ ID NO: 25 (protein)
chain: MATSWGTVFFMLVVSCVCSAVSHRNQQTWFEGIFLSSMCPINVSASTLYGIMFDAGSTGTRIHVYTFVQKMPGQLPILEGEVFDSVKPGLSAFVDQPKQGAETVQGLLEVAKDSIPRSHWKKTPVVLKATAGLRLLPEHKAKALLFEVKEIFRKSPFLVPKGSVSIMDGSDEGILAWVTVNFLTGQLHGHRQETVGTLDLGGASTQITFLPQFEKTLEQTPRGYLTSFEMFNSTYKLYTHSYLGFGLKAARLATLGALETEGTDGHTFRSACLPRWLEAEWIFGGVKYQYGGNQEGEVGFEPCYAEVLRVVRGKLHQPEEVQRGSFYAFSYYYDRAVDTDMIDYEKGGILKVEDFERKAREVCDNLENFTSGSPFLCMDLSYITALLKDGFGFADSTVLQAAVLR
For B3, the “increase in ATPase activity over cells transfected with vector alone” value in series [4] is listed as “at least a four fold increase in activity”.

B4: CD39: 510-amino acid cell-surface ecto-apyrase (ATPDase) (protein, UniProt P49961 1-510, looked up)
Ectonucleoside triphosphate …: MEDTKESNVKTFCSKNILAILGFSSIIAVIALLAVGLTQNKALPENVKYGIVLDAGSSHTSLYIYKWPAEKENDTGVVHQVEECRVKGPGISKFVQKVNEIGIYLTDCMERAREVIPRSQHQETPVYLGATAGMRLLRMESEELADRVLDVVERSLSNYPFDFQGARIITGQEEGAYGWITINYLLGKFSQKTRWFSIVPYETNNQETFGALDLGGASTQVTFVPQNQTIESPDNALQFRLYGKDYNVYTHSFLCYGKDQALWQKLAKDIQVASNEILRDPCFHPGYKKVVNVSDLYKTPCTKRFEMTLPFQQFEIQGIGNYQQCHQSILELFNTSYCPYSQCAFNGIFLPPLQGDFGAFSAFYFVMKFLNLTSEKVSQEKVTEMMKKFCAQPWEEIKTSYAGVKEKYLSEYCFSGTYILSLLLQGYHFTADSWEHIHFIGKIQGSDAGWTLGYMLNLTNMIPAEQPLSTPLSHSTYVFLMVLFSLVLFTVAIIGLLIFHKPSYFWKDMV
As for B4, in series [5], the “hydrolysis of ATP and ADP, in words” value was “able to hydrolyze both ATP and ADP substrates efficiently”.

B5: CD39-L4: novel human CD39-like protein, 428 amino acids, amino acid sequence SEQ ID NO: 3; soluble apyrase specific for NDPs (protein)
chain: MATSWGTVFFMLVVSCVCSAVSHRNQQTWFEGIFLSSMCPINVSASTLYGIMFDAGSTGTRIHVYTFVQKMPGQLPILEGEVFDSVKPGLSAFVDQPKQGAETVQGLLEVAKDSIPRSHWKKTPVVLKATAGLRLLPEHKAKALLFEVKEIFRKSPFLVPKGSVSIMDGSDEGILAWVTVNFLTGQLHGHRQETVGTLDLGGASTQITFLPQFEKTLEQTPRGYLTSFEMFNSTYKLYTHSYLGFGLKAARLATLGALETEGTDGHTFRSACLPRWLEAEWIFGGVKYQYGGNQEGEVGFEPCYAEVLRVVRGKLHQPEEVQRGSFYAFSYYYDRAVDTDMIDYEKGGILKVEDFERKAREVCDNLENFTSGSPFLCMDLSYITALLKDGFGFADSTVLQLTKKVNNIETGWALGATFHLLQSLGISH
For B5, the “increase in ATPase activity over cells transfected with vector alone” value in series [4] was “at least a four fold increase in activity”. Further, in [6] (ADP as substrate), the “hydrolysis of ADP, in words” value was “hydrolyze ADP”. In series [6] (ATP as substrate), the “hydrolysis of ATP, in words” value is reported as “neither the CD39L4 nor the CD39L4 mutant, ACR III, catalyzed hydrolysis”. For the same molecule, the “cooperativity of ADPase activity, in words” value in [7] is “does not appear to possess cooperativity”. Moreover, the “Vmax of ADP hydrolysis” value in [7] (15 mM CaCl2, ADP 0.75-18 mM, 37° C., 15 min, 60 ng protein per reaction, Michaelis-Menten fit) is reported as 1191 pmol/min. Further, in [7] (15 mM CaCl2, ADP 0.75-18 mM, 37° C., 15 min, Michaelis-Menten fit), the Km (commonly the substrate concentration at which the rate is half of its maximum) was 12.7 mM. Also, the “turnover number, kcat, ADP as substrate” value in [7] (assuming 60 ng protein and 46000 g/mol) turned out to be 913 min⁻¹. Besides, the “fold increase in ADPase activity over cells transfected with vector alone” value in [8] (CD39-L4-6His from COS-7 medium on Nickel-NTA resin, 37° C., 30 min, no added cation) was 2.3 fold. For the same molecule, the “fold increase in ADPase activity when Ca2+ added” value in series [8] (Ca2+ added) was 3.6 fold. Also, the “fold increase in ADPase activity when Mg2+ added” value in [8] (Mg2+ added) came to 6 fold.

B6: CD39L4 Cys39 to Ser mutant with a myc epitope and a 6 His tag at the C-terminus (enzyme, not shown: small tags and cut ends)
chain: HRNQQTWFEGIFLSSMSPINVSASTLYGIMFDAGSTGTRIHVYTFVQKMPGQLPILEGEVFDSVKPGLSAFVDQPKQGAETVQGLLEVAKDSIPRSHWKKTPVVLKATAGLRLLPEHKAKALLFEVKEIFRKSPFLVPKGSVSIMDGSDEGILAWVTVNFLTGQLHGHRQETVGTLDLGGASTQITFLPQFEKTLEQTPRGYLTSFEMFNSTYKLYTHSYLGFGLKAARLATLGALETEGTDGHTFRSACLPRWLEAEWIFGGVKYQYGGNQEGEVGFEPCYAEVLRVVRGKLHQPEEVQRGSFYAFSYYYDRAVDTDMIDYEKGGILKVEDFERKAREVCDNLENFTSGSPFLCMDLSYITALLKDGFGFADSTVLQLTKKVNNIETGWALGATFHLLQSLGISH
notes: also called Ser39 mutant; cys-mutant CD39L4
Turning to B6, the binding result in series [9] is reported as “no binding”.

B7: CD39L4 Cys39 to Ala mutant with a myc epitope and a 6 His tag at the C-terminus (enzyme, not shown: small tags and cut ends)
chain: B6 chain with S17A
notes: also called Ala39 mutant; cys-mutant CD39L4
Regarding B7, the binding result in series [9] is on record as “no binding”.
